We go through twelve molecules from patent US20250032576A1, “CNP Therapy” (BIOMARIN PHARMACEUTICAL INC., priority 2021, published 2025).

Residue numbers refer to the chain shown, from its start. Read-outs that look alike come from different tables or passages of the source. No end group written: not given here.

Test [1] deals with lumbar vertebral nppc expression, plasma NTproCNP. As to conditions: cited from earlier work.
For test [2], the system named is plasma NTproCNP. Particulars: short non Ach children starting daily HGH, day 21; cited from earlier work.
Test [3] has as its system NPR2. In words: cGMP catchpoint assay of NPR2 variants in transfected HEK293 cells treated with 20 nM CNP. In kind it is cell-based. The arrangement: key to Lable: loss-of-function (LoF); Gain-of-function (GoF). As to conditions: for average phenotype: cGMP normalized to RedLuciferase and to WT = 1, HEK293, 20 nM CNP, 0.4 nM IBMX, at least 3 repeat experiments with 4 replicates each; for Lable: high-confidence variant class. As to the method: Described herein is an in-vitro assay (cGMP) to assess the activities of >260 NPR2 variants. NPR2 protein-altering variants have been identified in the UK Biobank study and described in Estrada et al. (Nat Commun. 2021 12 (1): 2224). NPR2-expression constructs were transfected into HEK293 cells and 3 days later cells were treated with […] IBMX and 20 nM CNP in serum-free DMEM prior to measuring cGMP levels. The cGMP catchpoint ELISA competition assay (Molecular Devices) was used to measure cGMP according to manufacturer recommendations. RedLuc was used as a transfection control (FIG. 8A).
The NPR2 alpha-fold structure was obtained from a recent alpha-fold publication (Jumper et al., Nature 596:583-589 (2021)). A list of phenotypically characterized “high-confidence” variants was generated (Table 4). Phenotype is calculated by determining levels of cGMP using a standard curve. This value to normalized to RedLuciferase (transfection control). This value is further normalized by setting WT to 1. Average value is calculated from at least 3 repeat experiments with 4 replicates each.

As to “CNP 53: active 53-amino acid peptide generated from pro-CNP by furin cleavage (DLRVDTKSRAAWARLLQEHPNARKYKGANKKGLSKGCFGLKLDRIGSMSGLGC; ends and bridges not checked; cysteine pairing not given here; UniProt P23582 74-126, looked up)”, the “lumbar vertebral nppc expression” value in test [1] (3 days continuous high dose intravenous infusion) is recorded as “significantly reducing”. The results for the “plasma NTproCNP” value in test [1] (females (n=6)) and in test [1] (male rats (n=6)) were “small decline” and “did not reduce”, respectively.

Regarding “Human Growth Hormone [Human Growth Hormone (HGH)]”, in test [2], the “increase in NTproCNP, delta” value is 22% and the “increase in NTproCNP, mean” value is reported as 11 pmol/L.

B1: Glu727Gln: NPR2 protein-altering variant, expression construct transfected into HEK293 cells (protein)
chain: RNLTLAVVLPEHNLSYAWAWPRVGPAVALAVEALGRALPVDLRFVSSELEGACSEYLAPLSAVDLKLYHDPDLLLGPGCVYPAASVARFASHWRLPLLTAGAVASGFSAKNDHYRTLVRTGPSAPKLGEFVVTLHGHFNWTARAALLYLDARTDDRPHYFTIEGVFEALQGSNLSVQHQVYAREPGGPEQATHFIRANGRIVYICGPLEMLHEILLQAQRENLTNGDYVFFYLDVFGESLRAGPTRATGRPWQDNRTREQAQALREAFQTVLVITYREPPNPEYQEFQNRLLIRAREDFGVELGPSLMNLIAGCFYDGILLYAEVLNETIQEGGTREDGLRIVEKMQGRRYHGVTGLVVMDKNNDRETDFVLWAMGDLDSGDFQPAAHYSGAEKQIWWTGRPIPWVKGAPPSDNPPCAFDLDDPSCDKTPLSTLAIVALGTGITFIMFGVSSFLIFRKLMLEKELASMLWRIRWEELQFGNSERYHKGAGSRLTLSLRGSSYGSLMTAHGKYQIFANTGHFKGNVVAIKHVNKKRIELTRQVLFELKHMRDVQFNHLTRFIGACIDPPNICIVTEYCPRGSLQDILENDSINLDWMFRYSLINDLVKGMAFLHNSIISSHGSLKSSNCVVDSRFVLKITDYGLASFRSTAEPDDSHALYAKKLWTAPELLSGNPLPTTGMQKADVYSFGIILQEIALRSGPFYLQGLDLSPKEIVQKVRNGQRPYFRPSIDRTQLNEELVLLMERCWAQDPAERPDFGQIKGFIRRFNKEGGTSILDNLLLRMEQYANNLEKLVEERTQAYLEEKRKAEALLYQILPHSVAEQLKRGETVQAEAFDSVTIYFSDIVGFTALSAESTPMQVVTLLNDLYTCFDAIIDNFDVYKVETIGDAYMVVSGLPGRNGQRHAPEIARMALALLDAVSSFRIRHRPHDQLRLRIGVHTGPVCAGVVGLKMPRYCLFGDTVNTASRMESNGQALKIHVSSTTKDALDELGCFQLELRGDVEMKGKGKMRTYWLLGERKGPPGLL
With B1, in test [3], the average phenotype amounted to 1.705 and the Lable result was “GoF”.

B2: Thr377Asn: NPR2 protein-altering variant, expression construct transfected into HEK293 cells (protein)
chain: B1 chain with T355N, Q705E
In the case of B2, in test [3], the average phenotype is 0.01062 and the Lable entry is listed as “LoF”.

B3: Lys367Glu: NPR2 protein-altering variant, expression construct transfected into HEK293 cells (protein)
chain: B1 chain with K345E, Q705E
On to B3, for which, in test [3], the average phenotype is recorded as 0.01438 and the Lable result is reported as “LoF”.

B4: Arg263His: NPR2 protein-altering variant, expression construct transfected into HEK293 cells (protein)
chain: B1 chain with R241H, Q705E
On to B4, for which, in test [3], the average phenotype is recorded as 1.863 and the Lable entry is “GoF”.

B5: Arg776Trp: NPR2 protein-altering variant, expression construct transfected into HEK293 cells (protein)
chain: B1 chain with Q705E, R754W
For the molecule B5, in test [3], the average phenotype worked out at 0.01312 and the Lable result is “LoF”.

B6: Glu359Ala: NPR2 protein-altering variant, expression construct transfected into HEK293 cells (protein)
chain: B1 chain with E337A, Q705E
Regarding B6, in test [3], the average phenotype came to 2.998 and the Lable result was “GoF”.

B7: His552Arg: NPR2 protein-altering variant, expression construct transfected into HEK293 cells (protein)
chain: B1 chain with H530R, Q705E
For the molecule B7, in test [3], the average phenotype was 1.794 and the Lable entry is reported as “GoF”.

B8: Thr907Met: NPR2 protein-altering variant, expression construct transfected into HEK293 cells (protein)
chain: B1 chain with Q705E, T885M
With B8, in test [3], the average phenotype turned out to be 0.01456 and the Lable result is reported as “LoF”.

B9: HIS508Asp: NPR2 protein-altering variant, expression construct transfected into HEK293 cells (protein)
chain: B1 chain with H486D, Q705E
For the molecule B9, in test [3], the average phenotype worked out at 1.74 and the Lable result is “GoF”.

B10: Ala59Thr: NPR2 protein-altering variant, expression construct transfected into HEK293 cells (protein)
chain: B1 chain with A37T, Q705E
Regarding B10, in test [3], the average phenotype was determined as 3.735 and the Lable result is “GoF”.
